Assay [1] concerns the target HLA-A*02:01 (human MHC I heavy chain ectodomain, amino acids 1-278) refolded with human β2-microglobulin (human).
The target in assay [2] is H2-D^b (mouse MHC I heavy chain ectodomain) refolded with human β2-microglobulin (mouse | human). Briefly: fluorescence polarisation.
Assay [3] concerns the target HLA-A*02:01 (human MHC I heavy chain ectodomain, amino acids 1-278) refolded with human β2-microglobulin (human). Description: fluorescence polarisation. A general note: In fluorescence polarisation assays a small probe gives low polarisation when free and higher when bound to something large.
Assay [4] addresses H2-D^b (mouse MHC I heavy chain ectodomain) refolded with human β2-microglobulin (mouse | human). Briefly: SEC. A general note: In gel filtration, larger molecules generally elute earlier.

Take “TAPBPR^wt (wildtype human TAP-binding protein-related, ER-lumenal domain) (from UniProt Q9BX59 33-401) (domain or fragment)”: the dissociation rate constant of fluorescent peptide FLPSDC*FPSF from HLA-A*02:01 (300 nM) with 1 µM TAPBPR and 1000-fold excess of competitor peptide in assay [1] came out at 0.0158 s⁻¹. Also, the percent of fluorescent peptide released at 1 µM TAPBPR in assay [2] is 60%. Besides, the percent of total MHC I-associated peptide dissociated at saturation (3 µM TAPBPR) in assay [2] came out at 70%; in assay [3] it was 80%.
On to “TAPBPR^Tsn-SL (human TAPBPR lumenal domain with the scoop loop replaced by the corresponding shorter loop of tapasin) (from UniProt Q9BX59 33-401) (domain or fragment)”, for which the dissociation rate constant of fluorescent peptide FLPSDC*FPSF from HLA-A*02:01 (300 nM) with 1 µM TAPBPR and 1000-fold excess of competitor peptide (uncatalyzed 1.90 × 10^-3 s^-1) in assay [1] stood at 0.0263 s⁻¹. Further, the reduction of the amount of complex against TAPBPR^wt (SEC peak area) in assay [4] came out at 40%. Further, the percent of fluorescent peptide released at 1 µM TAPBPR in assay [2] is 12%.
In the case of “TAPBPR^ΔSL (human TAPBPR lumenal domain with the scoop loop replaced by three glycine residues) (from UniProt Q9BX59 33-401) (domain or fragment)”, the dissociation rate constant of fluorescent peptide FLPSDC*FPSF from HLA-A*02:01 (300 nM) with 1 µM TAPBPR and 1000-fold excess of competitor peptide in assay [1] stood at 0.00852 s⁻¹. The substance further came in with a reduction of the amount of complex against TAPBPR^wt (SEC peak area) in assay [4] of 90%.
